The values that follow come from PMC10418658, “Biochemical and Structural Insights into a Thiamine Diphosphate-Dependent α-Ketoglutarate Decarboxylase from Cyanobacterium Microcystis aeruginosa NIES-843” (International Journal of Molecular Sciences, 2023).

Holding throughout (assay): purified protein
Substrate in data set [1]: Cc1ncc(C[n+]2csc(CCO[P@](=O)(O)OP(=O)(O)O)c2C)c(N)n1
The class given is biochemical, Microcystis aeruginosa. The conditions noted are these: 10 mM α-ketoglutarate, 2 mM Mg2+, 100 mM HEPES pH 7.0, 10% glycerol, 25 °C, varied: cofactor.

Substrate in data set [2]: O=C(O)CCC(=O)C(=O)O
The class given is biochemical, Microcystis aeruginosa. The conditions noted are these: 1 mM ThDP, 2 mM Mg2+, 100 mM HEPES pH 7.0, 10% glycerol, 25 °C.

Substrate in data set [3]: Cc1ncc(C[n+]2csc(CCO[P@](=O)(O)OP(=O)(O)O)c2C)c(N)n1
Conditions: 10 mM α-ketoglutarate, 2 mM Mg2+, 100 mM HEPES pH 7.0, 10% glycerol, 25 °C; half-saturation of activity; pH 7.0; 25.0 °C; varied: cofactor.

For orientation: Km means the concentration of substrate that gives half-maximal velocity. Usually kcat stands for the maximal rate divided by the concentration of active sites. The term kcat/Km denotes the turnover number divided by the Michaelis constant.

B1: MiKGD (Microcystis aeruginosa NIES-4325) (protein)
chain: MGELNTAELLVKCLENEGVEYIFGLPGEENLDVLEALKNSSIKFITTRHEQGAAFMADVYGRLTGKAGVCLSTLGPGATNLMTGVADANLDGAPLVAITGQVGTDRMHIESHQYLDLVAMFAPVTKWNKQIVRPGITPEVVRRAFKTAQSEKPGAVHIDLPENIAAMPADGHPLPLDSQEKVYASYRTLNMAAAVISKAKNPLILAGNGAIRANASEALTEFATALNIPVANTFMGKGVIPYTHPLALWAVGLQQRDLISCAFDRSDLIIAVGYDLIEYSPKKWNPEGKLPIIHIGMTPAEIDSSYAPVVEVVGDITDSLIDILKRADRQNKPTPVTAGLKTEIRADYETYANDTGFPIKPQKLIYDLRQVMGPEDIVISDVGAHKMWMARQYHSDCPNTCIISNGFAAMGIAIPGAIAAKLVHPDKRVVAVTGDGGFMMNCQELETALRVGTPFVTLIFNDGGYGLIEWKQFNYFGTSSFIKFGNPDFVKFAESMGLKGYRVESAQDLIPILEEAFQQEVPTVIDVPVDYGENLRLSQKSGDLSCQIWE
notes: full length, pET28a (NdeI/XhoI), E. coli BL21(DE3) with chaperone plasmid pTf16; codon-optimised gene
As for B1, the K0.5 in the data set “purified protein [1]” (half-saturation of activity) turned out to be 0.026 ± 0.006 mM. For the same protein, in “purified protein [2]”, the Km was 4.47 ± 0.63 mM, the kcat came to 4.33 ± 0.37 s⁻¹ and the kcat/Km is 970 M⁻¹ s⁻¹.

B2: MaKGD (Microcystis aeruginosa NIES-843) (protein)
chain: MGELNTAELLVKCLENEGVEYIFGLPGEENLDVLEALKNSSIKFITTRHEQGAAFMADVYGRLTGKAGVCLSTLGPGATNLMTGVADANLDGAPLVAITGQVGTDRMHIESHQYLDLVAMFAPVTKWNKQIVRPGITPEVVRRAFKTAQSEKPGAVHIDLPENIAAMAADGHPLPLDSQEKVYASYRTLNMAAAVISKAKNPLILAGNGAIRANASEALTEFATALNIPVANTFMGKGVIPYTHPLALWAVGLQQRDLISCAFERSDLIIAVGYDLIEYSPKKWNPDGKLPIIHIGMTPAEIDSSYAPVVEVVGDITDSLIDILKRADRQNKPTPVTAGLKTEIRADYETYANDTGFPIKPQKLIYDLRQVMGPEDIAICDVGAHKMWMARQYHSDCPNTCIISNGFAAMGIAIPGAIAAKLVYPNKRIVAVTGDGGFMMNCQELETALRVGTPFVTLIFNDGGYGLIEWKQLNYFGTSSFIKFGNPDFVKFAESMGLKGYRVESTQDLIPTLEEAFRQEVPTVIDVPVDYGENLRLSQKSGDLSCQIWE
notes: full length, pET28a (NdeI/XhoI), E. coli BL21(DE3) with chaperone plasmid pTf16, imidazole-eluted; codon-optimised gene
For B2, in “purified protein [3]”, the K0.5 was determined as 0.0056 ± 0.0007 mM. In the data set “purified protein [2]”, the Km was 0.87 ± 0.23 mM, the kcat worked out at 7.8 ± 0.5 s⁻¹ and the kcat/Km was 8970 M⁻¹ s⁻¹.

B3: MaKGD (Microcystis aeruginosa NIES-843; M410A) (protein)
chain: MGELNTAELLVKCLENEGVEYIFGLPGEENLDVLEALKNSSIKFITTRHEQGAAFMADVYGRLTGKAGVCLSTLGPGATNLMTGVADANLDGAPLVAITGQVGTDRMHIESHQYLDLVAMFAPVTKWNKQIVRPGITPEVVRRAFKTAQSEKPGAVHIDLPENIAAMAADGHPLPLDSQEKVYASYRTLNMAAAVISKAKNPLILAGNGAIRANASEALTEFATALNIPVANTFMGKGVIPYTHPLALWAVGLQQRDLISCAFERSDLIIAVGYDLIEYSPKKWNPDGKLPIIHIGMTPAEIDSSYAPVVEVVGDITDSLIDILKRADRQNKPTPVTAGLKTEIRADYETYANDTGFPIKPQKLIYDLRQVMGPEDIAICDVGAHKMWMARQYHSDCPNTCIISNGFAAAGIAIPGAIAAKLVYPNKRIVAVTGDGGFMMNCQELETALRVGTPFVTLIFNDGGYGLIEWKQLNYFGTSSFIKFGNPDFVKFAESMGLKGYRVESTQDLIPTLEEAFRQEVPTVIDVPVDYGENLRLSQKSGDLSCQIWE
notes: as for B2
Turning to B3, the K0.5 in “purified protein [1]” was determined as 0.046 ± 0.010 mM.

B4: MaKGD (Microcystis aeruginosa NIES-843; L467A) (protein)
chain: MGELNTAELLVKCLENEGVEYIFGLPGEENLDVLEALKNSSIKFITTRHEQGAAFMADVYGRLTGKAGVCLSTLGPGATNLMTGVADANLDGAPLVAITGQVGTDRMHIESHQYLDLVAMFAPVTKWNKQIVRPGITPEVVRRAFKTAQSEKPGAVHIDLPENIAAMAADGHPLPLDSQEKVYASYRTLNMAAAVISKAKNPLILAGNGAIRANASEALTEFATALNIPVANTFMGKGVIPYTHPLALWAVGLQQRDLISCAFERSDLIIAVGYDLIEYSPKKWNPDGKLPIIHIGMTPAEIDSSYAPVVEVVGDITDSLIDILKRADRQNKPTPVTAGLKTEIRADYETYANDTGFPIKPQKLIYDLRQVMGPEDIAICDVGAHKMWMARQYHSDCPNTCIISNGFAAMGIAIPGAIAAKLVYPNKRIVAVTGDGGFMMNCQELETALRVGTPFVTLIFNDGGYGAIEWKQLNYFGTSSFIKFGNPDFVKFAESMGLKGYRVESTQDLIPTLEEAFRQEVPTVIDVPVDYGENLRLSQKSGDLSCQIWE
notes: as for B2
For B4, in “purified protein [1]”, the K0.5 is on record as 0.026 ± 0.004 mM. For the same protein, in the data set “purified protein [2]”, the Km was 1.22 ± 0.51 mM and the kcat came out at 2.7 ± 0.32 s⁻¹.

B5: MaKGD (Microcystis aeruginosa NIES-843; Y465A) (protein)
chain: MGELNTAELLVKCLENEGVEYIFGLPGEENLDVLEALKNSSIKFITTRHEQGAAFMADVYGRLTGKAGVCLSTLGPGATNLMTGVADANLDGAPLVAITGQVGTDRMHIESHQYLDLVAMFAPVTKWNKQIVRPGITPEVVRRAFKTAQSEKPGAVHIDLPENIAAMAADGHPLPLDSQEKVYASYRTLNMAAAVISKAKNPLILAGNGAIRANASEALTEFATALNIPVANTFMGKGVIPYTHPLALWAVGLQQRDLISCAFERSDLIIAVGYDLIEYSPKKWNPDGKLPIIHIGMTPAEIDSSYAPVVEVVGDITDSLIDILKRADRQNKPTPVTAGLKTEIRADYETYANDTGFPIKPQKLIYDLRQVMGPEDIAICDVGAHKMWMARQYHSDCPNTCIISNGFAAMGIAIPGAIAAKLVYPNKRIVAVTGDGGFMMNCQELETALRVGTPFVTLIFNDGGAGLIEWKQLNYFGTSSFIKFGNPDFVKFAESMGLKGYRVESTQDLIPTLEEAFRQEVPTVIDVPVDYGENLRLSQKSGDLSCQIWE
notes: as for B2
As for B5, the K0.5 in the data set “purified protein [1]” is given as 0.090 ± 0.021 mM. In addition, in the data set “purified protein [2]”, the Km amounted to 1.48 ± 0.27 mM and the kcat was found to be 1.23 ± 0.25 s⁻¹.

B6: MaKGD (Microcystis aeruginosa NIES-843; D462N) (protein)
chain: MGELNTAELLVKCLENEGVEYIFGLPGEENLDVLEALKNSSIKFITTRHEQGAAFMADVYGRLTGKAGVCLSTLGPGATNLMTGVADANLDGAPLVAITGQVGTDRMHIESHQYLDLVAMFAPVTKWNKQIVRPGITPEVVRRAFKTAQSEKPGAVHIDLPENIAAMAADGHPLPLDSQEKVYASYRTLNMAAAVISKAKNPLILAGNGAIRANASEALTEFATALNIPVANTFMGKGVIPYTHPLALWAVGLQQRDLISCAFERSDLIIAVGYDLIEYSPKKWNPDGKLPIIHIGMTPAEIDSSYAPVVEVVGDITDSLIDILKRADRQNKPTPVTAGLKTEIRADYETYANDTGFPIKPQKLIYDLRQVMGPEDIAICDVGAHKMWMARQYHSDCPNTCIISNGFAAMGIAIPGAIAAKLVYPNKRIVAVTGDGGFMMNCQELETALRVGTPFVTLIFNNGGYGLIEWKQLNYFGTSSFIKFGNPDFVKFAESMGLKGYRVESTQDLIPTLEEAFRQEVPTVIDVPVDYGENLRLSQKSGDLSCQIWE
notes: as for B2
Take B6: the K0.5 in the data set “purified protein [1]” came to 0.008 ± 0.001 mM. Further, in “purified protein [2]”, the Km was 3.92 ± 0.45 mM and the kcat is 1.5 ± 0.36 s⁻¹.

B7: MaKGD (Microcystis aeruginosa NIES-843; D435E) (protein)
chain: MGELNTAELLVKCLENEGVEYIFGLPGEENLDVLEALKNSSIKFITTRHEQGAAFMADVYGRLTGKAGVCLSTLGPGATNLMTGVADANLDGAPLVAITGQVGTDRMHIESHQYLDLVAMFAPVTKWNKQIVRPGITPEVVRRAFKTAQSEKPGAVHIDLPENIAAMAADGHPLPLDSQEKVYASYRTLNMAAAVISKAKNPLILAGNGAIRANASEALTEFATALNIPVANTFMGKGVIPYTHPLALWAVGLQQRDLISCAFERSDLIIAVGYDLIEYSPKKWNPDGKLPIIHIGMTPAEIDSSYAPVVEVVGDITDSLIDILKRADRQNKPTPVTAGLKTEIRADYETYANDTGFPIKPQKLIYDLRQVMGPEDIAICDVGAHKMWMARQYHSDCPNTCIISNGFAAMGIAIPGAIAAKLVYPNKRIVAVTGEGGFMMNCQELETALRVGTPFVTLIFNDGGYGLIEWKQLNYFGTSSFIKFGNPDFVKFAESMGLKGYRVESTQDLIPTLEEAFRQEVPTVIDVPVDYGENLRLSQKSGDLSCQIWE
notes: as for B2
Take B7: the K0.5 in the data set “purified protein [1]” was determined as 0.041 ± 0.003 mM.

B8: MaKGD (Microcystis aeruginosa NIES-843; D462E) (protein)
chain: MGELNTAELLVKCLENEGVEYIFGLPGEENLDVLEALKNSSIKFITTRHEQGAAFMADVYGRLTGKAGVCLSTLGPGATNLMTGVADANLDGAPLVAITGQVGTDRMHIESHQYLDLVAMFAPVTKWNKQIVRPGITPEVVRRAFKTAQSEKPGAVHIDLPENIAAMAADGHPLPLDSQEKVYASYRTLNMAAAVISKAKNPLILAGNGAIRANASEALTEFATALNIPVANTFMGKGVIPYTHPLALWAVGLQQRDLISCAFERSDLIIAVGYDLIEYSPKKWNPDGKLPIIHIGMTPAEIDSSYAPVVEVVGDITDSLIDILKRADRQNKPTPVTAGLKTEIRADYETYANDTGFPIKPQKLIYDLRQVMGPEDIAICDVGAHKMWMARQYHSDCPNTCIISNGFAAMGIAIPGAIAAKLVYPNKRIVAVTGDGGFMMNCQELETALRVGTPFVTLIFNEGGYGLIEWKQLNYFGTSSFIKFGNPDFVKFAESMGLKGYRVESTQDLIPTLEEAFRQEVPTVIDVPVDYGENLRLSQKSGDLSCQIWE
notes: as for B2
In the case of B8, the K0.5 in the data set “purified protein [1]” turned out to be 0.761 ± 0.143 mM. In the data set “purified protein [2]”, the Michaelis-Menten constant (Km) is listed as 2.38 ± 0.63 mM and the kcat amounted to 9 ± 0.47 s⁻¹.
